Source: the supplement of paper PMC10567573

B1: PDLIM4 (parent)
chain: FLDERLYCESHAKARVKPPEGYDV
B2: ATL3 (parent)
chain: FSFRYQQELEEEIKELYENFCKHN

Variants of: B1
Experiment: protein stability index of a GFP-peptide fusion (GPS, HEK-293T) (PSI 1-6); higher = more stable
Details: c terminus: a fixed tail appended
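Further: lentivirally expressed fusions sorted by FACS into six bins by GFP to DsRed ratio, PSI derived from sequencing read proportions per bin multiplied by bin number.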

Protein stability index of substitutions, site by site:
L2: F 3.46, W 2.47, R 2.96, T 2.54, V 2.42, C 1.96, M 1.67, H 2.24, A 1.81, I 1.38, N 3.48, S 3.37, Y 3.53, Q 2.12, G 3.4, K 3.99, P 2.98, D 4.28
F1: M 4.29, Y 1.3, Q 4.58, C 3.43, V 3.92, W 2.5, K 4.43, A 4.23, P 5, N 4.21, D 4.34, R 4.28, I 4.27, T 4.72, E 4.68, L 3.89, S 4.63, H 4.26
D3: E 1.94, C 3.79, A 2.14

Variants of: B2
Experiment: as above
Details: c terminus: a fixed tail appended

Protein stability index, by site and new letter:
L9: R 3.33, P 2.63, W 2.66, Q 3.09, I 2.5, S 2.41, M 2.65, H 3.64, Y 2.24, K 2.68, V 2.11, T 3.48, N 2.81
L16: P 3, K 3.02, Q 4.14, F 2.62, I 2.59, H 3.48, T 2.5, G 3.3, E 3.18, C 2.42, D 3.13, S 2.79, M 3.39, A 2.56, V 2.28, N 2.86, R 2.71, Y 2.13, W 2.03
Y17: S 3.49, A 3.16, N 3.09, V 3.33, P 4.27, H 3.05, R 2.73, K 2.89, Q 4.02, L 2.36, W 2.48, I 2.92, G 4.22, T 3.76, D 2.92, C 3.09, F 2.16, M 2.68, E 3.97
K14: N 2.31, E 2.53, H 2.28, W 2.73, R 2.72, P 2.05, Y 1.62, G 2.37, D 2.81, T 2.29, A 2.33, C 2.15, F 1.87, V 2.17, I 1.62, S 1.66, L 1.49, M 1.53, Q 2.39
F20: D 2.62, I 1.71, L 2.19, T 2.41, A 2.83, H 2.73, W 1.9, K 2.81, R 2.8, E 3.58, C 2.66, Y 2.38, S 3.01, Q 2.55, V 2.02, P 2.5, N 2.61, M 2.17, G 2.81
H23: G 2.04, A 2.25, P 1.6, I 2.43, T 3.04, L 2.73, Y 2.49, K 3.21, S 2.1, F 2.19, D 2.12, W 2.14, M 2.49, R 1.86, C 1.84, E 2.63, Q 2.75, N 2.3
E11: M 2.37, D 2.38, S 2.58, G 2.21, V 1.53, W 1.8, P 2.25, T 2.74, H 2.29, Q 2.18, N 2.69, L 1.58, K 2.55, Y 1.6, R 1.98, I 2.11, C 1.61, A 2.76, F 1.45
E18: S 1.91, R 1.96, W 1.34, H 1.89, Y 2.15, M 2.27, T 2.52, Q 1.8, A 2.19, V 3.55, L 1.55, I 2.28, D 2.6, N 2.15, C 1.57, K 1.72, P 1.77, F 1.21
I13: K 2.79, Q 2.19, N 2.46, A 2.31, T 2.91, R 2.53, L 1.99, Y 2.83, F 2.66, V 2.07, E 2.9, W 2.66, M 2.65, C 3.79, H 2.82, S 2.17, G 2.29, P 2.45, D 2.69
C21: L 2.13, D 3.33, Y 1.77, F 2.1, K 2.66, E 3.12, P 2.11, W 2.31, M 2.32, Q 3.08, S 2.48, G 2.55, R 2.46, V 2.62, I 2.05, T 1.97, H 2.18, N 2.58, A 3.33
N24: G 2.36, Y 2.61, F 3.38, S 2.14, A 2.37, C 2.77, K 2.48, P 1.96, H 2.64, E 1.93, R 2.42, W 2.12, T 3.13, L 2.64, V 3.5, M 2.49, D 2.49, I 2.82
N19: C 2.02, Q 2.04, A 2.28, S 2.41, P 2.16, R 2.31, L 1.98, Y 1.89, M 1.66, D 1.44, W 1.73, E 2.06, V 1.81, K 1.92, T 1.99, I 2.04, F 1.72, G 1.73, H 1.97
K22: F 2.08, M 2.24, A 2.45, W 1.35, P 1.97, H 2.04, D 2.42, C 2.06, Q 2.93, T 3.02, E 2.41, L 2.77, V 1.99, G 2.58, S 2.33, I 2.23, N 2.54, Y 2.01, R 2.12
E10: N 2.13, G 1.9, S 2.23, M 1.75, K 2.2, R 1.78, I 1.46, F 2.06, L 1.6, H 1.81, V 1.47, A 2.02, Q 2, D 3.31, T 2.37, W 2.02, P 2.61, C 1.77, Y 1.75
E15: M 1.39, R 2.06, D 2.59, A 1.38, N 1.75, Y 1.8, Q 1.91, P 1.59, F 1.56, H 2.15, I 1.71, G 1.56, V 2.33, T 1.83, S 2.03, W 2.29, K 2.96, C 1.67, L 1.96
E12: L 2.74, D 2.84, Q 2.53, T 1.79, I 2.07, P 2.17, M 1.76, C 1.76, S 2.03, F 1.91, R 1.76, H 2.29, V 2.08, A 1.97, G 2.1, Y 2.06, N 2.09, K 2.27, W 2.04
